Positions count from the first letter of the chain named. Names and notes keep the numbering of the source. Where two headings read alike, the source gives them in different places.
B1: CODA806: engineered receptor: Y115D, L131Q in SEQ ID NO: 33 (Chemogenic receptor-11) (protein)
chain: MRCSPGGVWLALAASLLHVSLQGEFQRKLYKELVKNYNPLERPVANDSQPLTVYFSLSLLQIMDVDEKNQVLTTNIWLQMSWTDHYLQWNVSEYPGVKTVRFPDGQIWKPDILLDNSADERFDATFHTNVQVNSSGHCQYLPPGIFKSSCPMDLKNFPMDVQTCKLKFGSWSYGGWSLDLQMQEADISGYIPNGEWDLVGIPGKRSERFYECCKEPYPDVTFTVTMRRRMGYYLIQMYIPSLLIVILSWISFWINMDAAPARVGLGITTVLTMTTQSSGSRASLPKVSYVKAIDIWMAVCLLFVFSALLEYAAVNFVSRQHKELLRFRRKRRHHKSPMLNLFQEDEAGEGRFNFSAYGMGPACLQAKDGISVKGANNSNTTNPPPAPSKSPEEMRKLFIQRAKKIDKISRIGFPMAFLIFNMFYWIIYKIVRREDVHNQ
modifications: synthetic sequence of chimeric LGIC
B2: COAD1056 (protein)
chain: B1 chain with R101F, D115E, Q131L, Y210W
modifications: synthetic sequence of chimeric LGIC
B3: COAD1055 (protein)
chain: B1 chain with R101W, D115E, Q131L, Y210W
modifications: synthetic sequence of chimeric LGIC

Assays:
[1] = tested on: engineered receptors and wild type nAchRa7 expressed in HEK293T cells; experiment: High throughput electrophysiology (IonFlux HT/Mercury automated patch clamp), EC50; format: cell-based, human; conditions: for EC50: ligand TC-5619
Experimental: To confirm the […] determined by plate reader as well as develop a better understanding of maximum current flow, the engineered receptors were subjected to high throughput electrophysiology system, as described below. For HEK293T studies, cDNAs encoding ion channels were cloned into pcDNA3.1 using standard recombination techniques. HEK293T cells from Clontech (Lenti-XTM 293T Cell Line) were cultured in DMEM supplemented with 10% FBS and 1% Pen/Strep to 40-50% confluence using standard cell culture protocols, transfected with ion channel plasmids at a concentration of 18 μg per 15 cm dish using Fugene 6, and grown for an additional 24 hours. Cells were then assayed on an electrophysiological system (IonFluxHT and/or Mercury, Fluxion Biosciences) in which dose-response relationships may be assessed through a microfluidics-based platform for establishing whole cell configurations. Ensemble plates were primed with extracellular buffer (140 mM NaCl, 5 mM KCl, 2 mM CaCl2), 1 mM MgCl2, 10 mM HEPES, and 10 mM glucose, pH 7.2 with NaOH, mOsm 310), intracellular buffer (145 mM CsCl, 2 mM CaCl2, 2 mM MgCl2, 10 mM HEPES, and 10 mM EGTA, pH 7.2 with CsOH, mOsm 305), as adapted from Lynagh and Lynch, and test compounds (stocks prepared fresh) diluted in extracellular buffer. Cells were then released from the plate with Accutase, centrifuged, resuspended in extracellular buffer, and loaded into Ensemble plates. Cells were then subjected to a standard protocol for priming, trapping, breaking, and establishing whole cell configuration, with cells held at −60 mV throughout the recording. After recording baseline, progressive doses of test compounds were applied using the IonFlux software to assess dose response relationships. Data were then analyzed off-line using custom Python scripts to convert data to .csv format, re-plot traces, and apply QC measurements to reject unstable recordings (i.e. thresholding based on access resistance and/or standard deviation in baseline, as well as artifact rejection). Peak currents were then calculated, and population data were fit using a 4-parameter logistic equation as described by the Hill Equation. Currents were measured on an automated patch clamp system (Fluxion Biosciences) following 1 second addition of drug and the EC50 values calculated are tabulated below in Table 22A and Table 22B below and Table 21A and Table 21B above (in Example 2).

rat DRG neurons = experiment: Rheobase shift / evoked action potentials, rat DRG neurons (current clamp); format: cell-based; conditions: for Rheobase Shift; Rat DRG Neurons, Baseline: no ligand, neurons expressing the receptor; for Rheobase Shift; Rat DRG Neurons, +TC-5619 @ EC90: ligand TC-5619 at EC90
Experimental: Using whole cell manual patch clamp electrophysiology in HEK293 cells, rat DRG neurons and rat hippocampal neurons, the EC50 of the various engineered receptors disclosed herein to Ach and non-native ligands was measured using the Hill equation with peak current measurements from escalating doses of ligand. The rheobase shift was also measured in rat DRG neurons, which reflects the efficacy of the receptors. To calculate the rheobase, first, the amount of current that can produce an action potential was determined. Then the ligand was added, followed by a step wise increase in the current injected up to 700 pA.
DRG rheobase experiments were performed in current clamp mode using a potassium-based internal solution containing: 100 mM potassium D-gluconate, 28 mM potassium chloride, 1 mM magnesium chloride hexahydrate, 5 mM magnesium ATP, 10 mM HEPES, and 0.5 mM EGTA (pH=7.2 with potassium hydroxide, osmolarity=290-295 mOsm, calculated liquid junction potential=−13.5 mV). To measure DRG input resistance and rheobase, 500 ms current steps (−200 pA to 700 pA) were applied the membrane in the presence and absence of a compound. No holding current was applied to the membrane for cells included in the final datasets. Data were acquired at 10 kHz, with Bessel filter at 2 kHz and series resistance compensation at 100%. Rheobase was defined as the smallest depolarizing current injection required to cause an action potential to fire in the cell. In a subset of cells, the rheobase was ambiguous, since the action potential appeared to be graded in amplitude. In these cases, a […] of the trace clarified the rheobase. Input resistance was measured from the negative current injections, calculated as the difference in membrane potential at steady state divided by the current injection amplitude and then averaged across the four negative current steps for each recording. Resting membrane potential was measured from the first 100 ms of each sweep, averaged for each recording, and corrected for liquid junction potential. One-way ANOVA with multiple comparisons was used to test for significance of difference in rheobase and input resistance between baseline, drug, and wash conditions.
DRG neurons: DRG rheobase experiments were performed in current clamp mode using a potassium-based internal solution containing (in mM): 100 potassium D-gluconate (G4500), 28 potassium chloride (P9333), 1 magnesium chloride hexahydrate (M2670), 5 magnesium ATP (A9187), 10 HEPES (54457), and 0.5 EGTA (3777) (pH=7.2 with potassium hydroxide, osmolarity=290-295 mOsm, calculated liquid junction potential=−13.5 mV). To measure DRG input resistance and rheobase, 500 ms current steps (−200 pA to 700 pA) were applied the membrane (−400 pA to 700 pA in an early version of the protocol) in the presence and absence of a compound. No holding current was applied to the membrane for cells included in the final datasets. Data were acquired at 10 kHz, with Bessel filter at 2 kHz and series resistance compensation at 100%. Rheobase was defined as the smallest depolarizing current injection required to cause an action potential to fire in the cell. In a subset of cells, the rheobase was ambiguous, since the action potential appeared to be graded in amplitude. In these cases, a […] of the trace clarified the rheobase. Input resistance was measured from the negative current injections, calculated as the difference in membrane potential at steady state divided by the current injection amplitude and then averaged across the four negative current steps for each recording. Resting membrane potential was measured from the first 100 ms of each sweep, averaged for each recording, and corrected for liquid junction potential. One-way ANOVA with multiple comparisons was used to test for significance of difference in rheobase and input resistance between baseline, drug, and wash conditions.

[2] = HEK293 Cell Line, Table 22A, read-out: High-throughput Ephys EC50 (uM) TC-5619
[3] = high throughput electrophysiology, read-out: TC-5619 EC50 (ephys)

| Molecule | fold increased potency towards RG-3487 compared to wild type receptor ([1]; ligand RG-3487) | fold reduced potency to acetylcholine compared to wild type receptor ([1]; ligand acetylcholine) | effect on evoked action potentials (rat DRG neurons; Acetylcholine at 3.0 mM, transduced neurons, n=4, FIG. 4B) | current injection evoked action potentials (rat DRG neurons; RG-3487 (SA-2) at 3 μM, transduced rat DRG neurons, FIG. 4A) | increase in the current required to elicit action potentials (rat DRG neurons; RG-3487 (SA-2) at 3 μM, transduced rat DRG neurons, n=7) | Rheobase Shift; Rat DRG Neurons, Baseline (rat DRG neurons) | Rheobase Shift; Rat DRG Neurons, Facinicline/RG-3487 @ EC90 (rat DRG neurons; ligand Facinicline/RG-3487 at EC90) | EC50 [1, 2] | EC50 [1, 3] | Rheobase Shift; Rat DRG Neurons, +TC-5619 @ EC90 (rat DRG neurons) |
| --- | --- | --- | --- | --- | --- | --- | --- | --- | --- | --- |
| B1 | over 10 fold | over 500 fold | no effect | reversibly inhibits current injection evoked action potentials | ~3 x | 163 ± 28 pA | 625 ± 35 pA | – | – | – |
| B2 | – | – | – | – | – | 114 ± 12 pA | – | 0.042 µM | 0.0421 µM | 632 ± 43 pA |
| B3 | – | – | – | – | – | 83 ± 7 pA | – | 0.0106 µM | 0.0106 µM | 562 ± 35 pA |
